Assay results as given in paper PMC5628889, “Thermal adaptation of mesophilic and thermophilic FtsZ assembly by modulation of the critical concentration” (PLoS ONE, 2017).
Blank lines part the entries; values can stand above or below the molecule they belong to.

Assays:
[1] = biological target: Methanocaldococcus jannaschii FtsZ-his6 fusion protein (Methanocaldococcus jannaschii) (UniProt Q57816); assay: 90° light scattering; MjFtsZ self-assembly started with 1 mM GTP; 50 mM MES-KOH pH 6.5, 5 mM MgCl2, 300 mM KCl; 70°C; critical concentration from extent of polymerization vs total protein; k_depol from the slope of the disassembly stage (7 μM); monomer addition at polymer ends, apparent
[2] = biological target: Methanocaldococcus jannaschii FtsZ-his6 fusion protein (Methanocaldococcus jannaschii) (UniProt Q57816); assay: 90° light scattering; MjFtsZ self-assembly started with 1 mM GTP; 50 mM MES-KOH pH 6.5, 5 mM MgCl2, 300 mM KCl; 50°C; critical concentration from extent of polymerization vs total protein; k_depol from the slope of the disassembly stage (7 μM); monomer addition at polymer ends, apparent
[3] = biological target: Methanocaldococcus jannaschii FtsZ-his6 fusion protein (Methanocaldococcus jannaschii) (UniProt Q57816)
[4] = biological target: Methanocaldococcus jannaschii FtsZ-his6 fusion protein (Methanocaldococcus jannaschii) (UniProt Q57816); assay: 90° light scattering; MjFtsZ self-assembly started with 1 mM GTP; 50 mM MES-KOH pH 6.5, 5 mM MgCl2, 300 mM KCl; 60°C; critical concentration from extent of polymerization vs total protein; k_depol from the slope of the disassembly stage (7 μM); monomer addition at polymer ends, apparent
[5] = biological target: Methanocaldococcus jannaschii FtsZ-his6 fusion protein (Methanocaldococcus jannaschii) (UniProt Q57816); assay: 90° light scattering; MjFtsZ self-assembly started with 1 mM GTP; 50 mM MES-KOH pH 6.5, 5 mM MgCl2, 300 mM KCl; 80°C; critical concentration from extent of polymerization vs total protein; k_depol from the slope of the disassembly stage (7 μM); monomer addition at polymer ends, apparent
[6] = biological target: Methanocaldococcus jannaschii FtsZ-his6 fusion protein (Methanocaldococcus jannaschii) (UniProt Q57816); assay: 90° light scattering; MjFtsZ self-assembly started with 1 mM GTP; 50 mM MES-KOH pH 6.5, 5 mM MgCl2, 300 mM KCl; 40°C; critical concentration from extent of polymerization vs total protein; k_depol from the slope of the disassembly stage (7 μM); monomer addition at polymer ends, apparent
[7] = biological target: Methanocaldococcus jannaschii FtsZ-his6 fusion protein (Methanocaldococcus jannaschii) (UniProt Q57816); assay: van't Hoff analysis of critical concentrations (light scattering + GTPase activity); MjFtsZ; global fit of ln(1/CC) vs 1/T (40-80°C) with the integrated van't Hoff equation; parameters extrapolated to the optimal growth temperature; polymer elongation, apparent
[8] = biological target: Methanocaldococcus jannaschii FtsZ-his6 fusion protein (Methanocaldococcus jannaschii) (UniProt Q57816); assay: negative-stain transmission electron microscopy; 10 μM MjFtsZ polymerized with 1 mM GTP at 80°C; 50 mM MES-KOH pH 6.5, 5 mM MgCl2, 300 mM KCl; 2% uranyl acetate
[9] = biological target: the molecule itself; assay: van't Hoff analysis of critical concentrations (light scattering + GTPase activity); EcFtsZ; global fit of ln(1/CC) vs 1/T (10-30°C) with the integrated van't Hoff equation; parameters extrapolated to the optimal growth temperature; polymer elongation, apparent
[10] = biological target: the molecule itself; assay: negative-stain transmission electron microscopy; 10 μM EcFtsZ polymerized with 1 mM GTP at 30°C; 50 mM MES-KOH pH 6.5, 5 mM MgCl2, 50 mM KCl; 2% uranyl acetate

- critical concentration for polymerization C (C-Pol) (= 1/Kp) [1]: 1.6 µM
- critical concentration for polymerization C (C-Pol) (= 1/Kp) [2]: 1.8 µM
- critical concentration for the GTPase activity C (C-GTPase) (malachite green phosphate release, 1 mM GTP), 40°C [3]: 5.5 µM
- critical concentration for the GTPase activity C (C-GTPase) (malachite green phosphate release, 1 mM GTP), 45°C [3]: 4.7 µM
- critical concentration for the GTPase activity C (C-GTPase) (malachite green phosphate release, 1 mM GTP), 50°C [3]: 3.3 µM
- critical concentration for the GTPase activity C (C-GTPase) (malachite green phosphate release, 1 mM GTP), 55°C [3]: 3.3 µM
- critical concentration for the GTPase activity C (C-GTPase) (malachite green phosphate release, 1 mM GTP), 65°C [3]: 2.2 µM
- critical concentration for the GTPase activity C (C-GTPase) (malachite green phosphate release, 1 mM GTP), 70°C [3]: 1 µM
- critical concentration for the GTPase activity C (C-GTPase) (malachite green phosphate release, 1 mM GTP), 80°C [3]: 1.1 µM
- critical concentration for polymerization C (C-Pol) (= 1/Kp) [4]: 1.6 µM
- critical concentration for polymerization C (C-Pol) (= 1/Kp) [5]: 1.1 µM
- critical concentration for polymerization C (C-Pol) (= 1/Kp) [6]: 3.9 µM
- dH [7]: 5.57 kJmol^−1
- stoichiometry N [8]: > 120 subunits
Molecule: Methanocaldococcus jannaschii FtsZ-his6 fusion protein (from UniProt Q57816 1-364) (natural protein)

B1: Wild type Escherichia coli FtsZ (natural protein, UniProt P0A9A6 1-383, looked up)
chain: MFEPMELTNDAVIKVIGVGGGGGNAVEHMVRERIEGVEFFAVNTDAQALRKTAVGQTIQIGSGITKGLGAGANPEVGRNAADEDRDALRAALEGADMVFIAAGMGGGTGTGAAPVVAEVAKDLGILTVAVVTKPFNFEGKKRMAFAEQGITELSKHVDSLITIPNDKLLKVLGRGISLLDAFGAANDVLKGAVQGIAELITRPGLMNVDFADVRTVMSEMGYAMMGSGVASGEDRAEEAAEMAISSPLLEDIDLSGARGVLVNITAGFDLRLDEFETVGNTIRAFASDNATVVIGTSLDPDMNDELRVTVVATGIGMDKRPEITLVTNKQVQQPVMDRYQQHGMAPLTQEQKPVAKVVNDNAPQTAKEPDYLDIPAFLRKQAD
notes: Cell division protein FtsZ, Escherichia coli, wild type; assembly was started with 1 mM GTP; also called EcFtsZ; mesophilic EcFtsZ; source: E. coli BL21 (DE3), overexpressed, purified (polymerization-depolymerization cycles)
- dH [9]: -18.4 kJmol^−1
- stoichiometry N [10]: > 120 subunits
